{"source": "paper PMC4110903", "about": "(Methods in enzymology, 2014)", "binders": {"B1": {"name": "MBP-tagged WAVE217: human WAVE1 (1-217)-(GGS)6-(485-559) (domain or fragment)", "chain": "MPLVKRNIDPRHLCHTALPRGIKNELECVTNISLANIIRQLSSLSKYAEDIFGELFNEAHSFSFRVNSLQERVDRLSVSVTQLDPKEEELSLQDITMRKAFRSSTIQDQQLFDRKTLPIPLQETYDVCEQPPPLNILTPYRDDGKEGLKFYTNPSYFFDLWKEKMLQDTEDKRKEKRKQKQKNLDRPHEPEKVPRAPHDRRREWQKLAQGPELAEDDGGSGGSGGSGGSGGSGGSKRHPSTLPVISDARSVLLEAIRKGIQLRKVEEQREQEAKHERIENDVATILSRRIAVEYSDSEDDSEFDEVDWLE"}}, "target": "T1, MBP-tagged full length human HSPC300 (human, UniProt Q8WUW1 1-75)", "T1 sequence (looked up)": "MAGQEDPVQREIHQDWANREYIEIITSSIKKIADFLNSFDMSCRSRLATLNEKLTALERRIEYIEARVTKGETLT", "test": "reconstitution and co-elution on anion exchange chromatography"}
{"binder": "B1", "values": [{"measurement": "binding result", "value": "binds"}]}
